Data on 2 molecules can be found in article PMC12332008, “Ribosome biogenesis in plants requires the nuclear envelope and mitochondria localized OPENER complex” (Nature Communications, 2025).

Read-outs that look alike come from different tables or passages of the source.

Assay [1] concerns the target T1, OAP1 (recombinant, 6xHis-tag removed) (Arabidopsis thaliana, UniProt F4K9I8 1-303).
T1 construct: OPENER ASSOCIATED PROTEIN 1 (OAP1), Arabidopsis thaliana, AT5G07950; printed molecular weight 34 kDa; not shown: 6xHis, N-terminal, cleaved
T1 sequence (looked up): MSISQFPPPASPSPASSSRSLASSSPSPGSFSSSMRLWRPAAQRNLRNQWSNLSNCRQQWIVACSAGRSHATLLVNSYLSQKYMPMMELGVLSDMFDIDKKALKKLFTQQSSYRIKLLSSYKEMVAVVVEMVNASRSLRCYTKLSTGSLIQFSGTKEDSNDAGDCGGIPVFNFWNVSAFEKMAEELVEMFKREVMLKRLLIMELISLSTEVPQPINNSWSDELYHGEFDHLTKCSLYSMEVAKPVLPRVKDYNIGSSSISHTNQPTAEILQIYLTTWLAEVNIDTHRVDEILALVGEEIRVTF
In words: SEC; OPNR-OAP1-OAP2 complex after removal of the 6xHis-tag; Superdex200 16/600.

Assay [2] deals with 6xHis-OAP1 (Arabidopsis thaliana). In words: co-purification of co-expressed proteins (Ni-NTA); 6xHis-OAP1, OAP2 and OPNR expressed together in E. coli BL21(DE3), purified on Ni-NTA resin by the His tag of OAP1; molar ratio from the gel.

For the molecule OAP2 (recombinant) (natural protein), the stoichiometry N in assay [1] and in assay [2] was 1 in each case.

B1: OPNR (recombinant) (natural protein, Arabidopsis thaliana, UniProt Q6NPG7 1-195, looked up)
chain: MEAVIRKWQQKFRKGKEEMEKWEALQVRWVSLFRNASSIIQRLQEMQNHGSYGALRCLKGIEDAVVQQQMGQLESLLRSMKNVMEEFWGCVLTFEKLHRDGLQLREIESSKRRVEERIGVKPCITDCLEGLSILYDMHQSEYHLKSSILSVLSCLILKPSPGDLNALQYLVVDQPNIPKDEVQHIFDVIFAEEIK
notes: OPENER (OPNR), Arabidopsis thaliana, AT5G43822; printed molecular weight 23 kDa; also called OPENER; source: E. coli BL21(DE3), co-expressed with 6xHis-OAP1 and OAP2 from pACYCDuet-1, co-purified (Ni-NTA, Superdex200)
On to B1, for which the “stoichiometry N” value in assay [1] (both partners purified) and in assay [2] was 1 throughout.
